Experimental findings from patent US20250250357A1 are described below.

pEC50: −log10 of the molar value.

Broadly, the pEC50 is −log10 of the EC50, conventionally taken in molar units.

Test [1] has as its target human MSLN-hFc protein (Acro, Cat. No. MSN-H5253) (human) (UniProt Q13421). The test can be described thus: ELISA, coated human MSLN-hFc, antibody 1 nM. In general terms: In an ELISA, binding on a coated surface is turned into a signal by an enzyme label.
For test [2] the target is unchanged. In words: ELISA, coated human MSLN-hFc, antibody 1 nM. This is another data set of the same source.
Test [3] shares this target. The test can be described thus: ELISA, coated human MSLN-hFc, antibody 10 nM.
Test [4] shares this target. In words: ELISA, coated human MSLN-hFc, antibody 10 nM. This is another data set of the same source.
Test [5] has the same target. The test can be described thus: ELISA, coated human MSLN-hFc, antibody 0.1 nM.
Test [6] shares this target. The test can be described thus: ELISA, coated human MSLN-hFc, antibody 100 nM.
The target is the same in test [7]. The test can be described thus: ELISA, coated human MSLN-hFc, antibody 0.1 nM. The source holds these as a separate data set.
Test [8] shares this target. The test can be described thus: ELISA, coated human MSLN-hFc, antibody 100 nM. The source holds these as a separate data set.
The target is the same in test [9]. The test can be described thus: ELISA, coated human MSLN-hFc, antibody 0.01 nM.
For test [10] the target is unchanged. In words: ELISA, coated human MSLN-hFc, antibody 0.01 nM. This is another data set of the same source.
The target is the same in test [11]. The test can be described thus: ELISA, coated human MSLN-hFc, antibody 0.001 nM.
Test [12] has the same target. The test can be described thus: ELISA, coated human MSLN-hFc, antibody 0.001 nM. This is another data set of the same source.
Test [13] shares this target. In words: ELISA, coated human MSLN-hFc, antibody 0.0001 nM.
In test [14] the target is monkey MSLN full-length protein expressed on HEK293T cells (HEK293T-monkey MSLN) (monkey). The test can be described thus: FACS on HEK293T-monkey MSLN cells.
For test [15], the target named is monkey MSLN full-length protein (NCBI: XP_028696439.1) on HEK293T cells (monkey). The test can be described thus: FACS on HEK293T-monkey MSLN cells; antibody […].
The target is the same in test [16]. The test can be described thus: FACS on HEK293T-monkey MSLN cells; antibody 4 nM.
Test [17] shares this target. In words: FACS on HEK293T-monkey MSLN cells; antibody 20 nM.
For test [18] the target is unchanged. In words: FACS on HEK293T-monkey MSLN cells; antibody 0.8 nM.
For test [19] the target is unchanged. The test can be described thus: FACS on HEK293T-monkey MSLN cells; antibody 100 nM.
The target is the same in test [20]. The test can be described thus: FACS on HEK293T-monkey MSLN cells; antibody 0.032 nM.
Test [21] has the same target. In words: FACS on HEK293T-monkey MSLN cells; antibody 0.0064 nM.
The target is the same in test [22]. The test can be described thus: FACS on HEK293T-monkey MSLN cells; antibody 0.00128 nM.
Test [23] addresses human MSLN-FL-his protein (human) (UniProt Q13421). In words: ELISA, antibody 100 nM.
The target of test [24] is human MSLN-R3-3 polypeptide (human). The test can be described thus: ELISA, coated antigen, antibody 1 nM.
For test [25] the target is unchanged. The test can be described thus: ELISA, coated antigen, antibody 0.1 nM.
Test [26] shares this target. In words: ELISA, coated antigen, antibody 0.01 nM.
Test [27] has the same target. In words: ELISA, coated antigen, antibody 0.001 nM.
For test [28] the target is unchanged. In words: ELISA, coated antigen, antibody 0.0001 nM.
Test [29] has the same target. The test can be described thus: ELISA, coated antigen, no antibody (blank).
Test [30] concerns the target human MSLN-R3-rFc protein (human) (UniProt Q13421). The test can be described thus: ELISA, antibody 1 nM.
For test [31] the target is unchanged. In words: ELISA, antibody 4 nM.
The target is the same in test [32]. In words: ELISA, antibody 20 nM.
The target is the same in test [33]. In words: ELISA, antibody 100 nM.
Test [34] shares this target. In words: ELISA, antibody 0.0064 nM.
Test [35] deals with human MSLN protein endogenously expressed on OVCAR3 tumor cells (human) (UniProt Q13421). The test can be described thus: FACS on OVCAR3 cells.
Sequence of human MSLN protein endogenously expressed on OVCAR3 tumor cells (human) (Q13421 other isoform, or with tags, fused parts or gaps): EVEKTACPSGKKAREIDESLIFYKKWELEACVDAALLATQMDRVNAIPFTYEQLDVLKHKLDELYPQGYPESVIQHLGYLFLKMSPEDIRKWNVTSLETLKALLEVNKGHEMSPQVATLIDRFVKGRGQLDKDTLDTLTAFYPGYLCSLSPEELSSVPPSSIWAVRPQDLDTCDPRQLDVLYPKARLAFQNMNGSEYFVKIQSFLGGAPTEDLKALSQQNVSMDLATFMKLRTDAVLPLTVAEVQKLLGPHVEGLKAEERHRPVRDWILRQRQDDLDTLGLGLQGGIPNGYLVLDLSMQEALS
In test [36] the target is human MSLN full-length protein (NCBI: AAH09272.1) expressed on HEK293T-hMSLN-B8 cells (human) (UniProt Q13421). The test can be described thus: FACS on HEK293T-hMSLN-B8 cells.
Sequence of human MSLN full-length protein (NCBI: AAH09272.1) expressed on HEK293T-hMSLN-B8 cells (human) (Q13421 other isoform, or with tags, fused parts or gaps limits assumed): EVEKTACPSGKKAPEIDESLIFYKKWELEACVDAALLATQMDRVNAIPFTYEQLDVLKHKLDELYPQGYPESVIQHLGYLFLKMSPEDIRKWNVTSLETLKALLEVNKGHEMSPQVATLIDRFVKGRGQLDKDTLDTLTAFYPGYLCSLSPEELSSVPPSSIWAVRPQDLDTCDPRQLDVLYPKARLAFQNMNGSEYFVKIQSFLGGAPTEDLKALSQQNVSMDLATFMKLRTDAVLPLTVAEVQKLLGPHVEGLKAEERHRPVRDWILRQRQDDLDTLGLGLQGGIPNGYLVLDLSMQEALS
For test [37], the target named is human MSLN-R3 protein (Met487-Ser606 of NCBI AAH09272.1) expressed on HEK293T-hMSLN-R3 cells (human) (UniProt Q13421). In words: FACS on HEK293T-hMSLN-R3 cells.
Sequence of human MSLN-R3 protein (Met487-Ser606 of NCBI AAH09272.1) expressed on HEK293T-hMSLN-R3 cells (human) (Q13421 495-614): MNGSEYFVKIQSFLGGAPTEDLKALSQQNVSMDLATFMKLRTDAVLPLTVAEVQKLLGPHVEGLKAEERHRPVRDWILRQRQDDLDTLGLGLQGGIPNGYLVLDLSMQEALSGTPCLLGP
Test [38] concerns the target monkey MSLN full-length protein (NCBI: XP_028696439.1) expressed on HEK293T-monkey MSLN cells (monkey). In words: FACS on HEK293T-monkey MSLN cells.

Sequence of human MSLN-hFc protein (Acro, Cat. No. MSN-H5253) (human) (Q13421 other isoform, or with tags, fused parts or gaps limits assumed): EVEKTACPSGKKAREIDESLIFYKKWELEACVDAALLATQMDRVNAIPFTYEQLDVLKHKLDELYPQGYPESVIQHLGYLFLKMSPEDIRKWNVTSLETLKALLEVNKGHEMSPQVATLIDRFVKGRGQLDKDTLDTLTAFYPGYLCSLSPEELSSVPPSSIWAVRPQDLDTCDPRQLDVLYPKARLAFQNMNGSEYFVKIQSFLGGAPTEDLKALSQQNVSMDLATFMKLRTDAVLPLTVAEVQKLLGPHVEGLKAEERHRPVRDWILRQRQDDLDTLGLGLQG
Sequence of human MSLN-R3-rFc protein (human) (Q13421 495-606): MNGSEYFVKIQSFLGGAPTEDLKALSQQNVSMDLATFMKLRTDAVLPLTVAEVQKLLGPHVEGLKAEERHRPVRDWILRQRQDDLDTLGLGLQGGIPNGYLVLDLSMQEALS
Sequence of human MSLN-FL-his protein (human) (Q13421 other isoform, or with tags, fused parts or gaps): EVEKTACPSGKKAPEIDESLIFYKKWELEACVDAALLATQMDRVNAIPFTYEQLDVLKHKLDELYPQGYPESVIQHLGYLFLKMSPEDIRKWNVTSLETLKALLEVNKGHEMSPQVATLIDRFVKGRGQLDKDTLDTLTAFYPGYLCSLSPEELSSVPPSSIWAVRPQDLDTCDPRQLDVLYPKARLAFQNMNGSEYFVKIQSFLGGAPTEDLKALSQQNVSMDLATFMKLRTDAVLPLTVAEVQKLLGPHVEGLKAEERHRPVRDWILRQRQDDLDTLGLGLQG

Take “Tab084 (NC), m971 VH-(G4S)3-VL-his (scFv)”: the OD450 nm came out at 0.05 in [1]; 0.06 in test [2]; 0.05 in [3]; 0.07 in test [4]; 0.05 in [5]; 0.05 in [6]. For the same substance, the OD450 nm in [7] amounted to 0.07; in [8], 0.07; in [9], 0.05; in test [10] it was 0.06; in [11], 0.05; in test [12], 0.06. The same substance displayed an OD450 nm in test [13] of 0.05.

Tab106 (YP218, hIgG1) (antibody): the pEC50 in [14] was over 9.30. This substance also returned a Maximum mean fluorescence intensity in test [14] of 12400. Also, the FACS fluorescence intensity in test [15] was found to be 313; in test [16] it was 2440; in test [17] it was 2660; in [18], 860; in test [19] it was 3290; in [20], 142. Further, the FACS fluorescence intensity stood at 100 in test [21] and 90 in test [22].

As for “Tab131 (m912, scFv-hIgG1 Fc) (Fc fusion)”, in test [23], the OD450 nm turned out to be 0.16. The FACS fluorescence intensity was found to be 83 in [15]; 86 in [16]; 85 in test [17]; 87 in test [18]; 87 in test [19]; 106 in test [20]. Also, the FACS fluorescence intensity in test [21] turned out to be 85; in [22] it was 93.

Turning to “anti-hel-hIgG1 (negative control antibody against hen egg lysozyme)”, the OD450 in [24] came out at 0.06; in test [25] it was 0.06; in test [26], 0.06; in test [27], 0.06; in test [28], 0.07; in test [29], 0.07.

Take “anti-human MSLN antibody (purchased from Acro, Cat. No. MSN-M30)”: the OD450 nm in test [30] was determined as 0.11; in test [31], 0.23; in test [32], 0.86; in [33] it was 1.11; in test [34], 0.16.

Turning to “hIgG1 negative control antibody (anti-hel-hIgG1, against hen egg lysozyme)”, the Maximum mean fluorescence intensity in test [35] came out at 122; in test [36] it was 267; in test [37], 102; in test [38], 102.
